Source: US9012420B2, “Aptamer for chymase, and use thereof” (Ribomic Inc., priority 2009, dated 2015)
Where a chain is given by its changes, count along the chain named.

T1: chymase (recombinant, manufactured by SIGMA) (Homo sapiens, UniProt P23946)
T1 construct: purchased SIGMA; host or cells: yeast
T1 sequence (P23946 22-247): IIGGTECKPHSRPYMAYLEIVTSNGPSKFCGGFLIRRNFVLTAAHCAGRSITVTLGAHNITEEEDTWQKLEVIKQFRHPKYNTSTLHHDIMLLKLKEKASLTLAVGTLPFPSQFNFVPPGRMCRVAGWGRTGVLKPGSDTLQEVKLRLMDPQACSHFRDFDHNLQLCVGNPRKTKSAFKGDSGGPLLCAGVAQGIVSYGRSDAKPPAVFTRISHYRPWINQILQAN

T2: chymase (recombinant) (UniProt P23946 P23946:22-247)
T2 sequence: T1 sequence (P23946 22-247)

B1: SEQ 18 (ssRNA)
RNA: GGGACGGUAGGAAUUCGAACGACAAAUUAUAGAACUUCGUUUGACAUUCCACACCACAUAGAAGAGCGGCCGC
modifications: 2'-F pyrimidines
B2: SEQ 14 (ssRNA)
RNA: GGGACGGUAGGAAUUCUCGUUCCUGACAGCAUUUGAGAUAGAUUUAAACAAACGCACAUAGAAGAGCGGCCGC
modifications: 2'-F pyrimidines
B3: SEQ 6 (ssRNA)
RNA: GGGACGGUAGGAAUUCUACGGUCUGUGUGAAAUUGAAACACACAAAGAACAAUAGACAUAGAAGAGCGGCCGC
modifications: 2'-F pyrimidines
B4: SEQ 8 (ssRNA)
RNA: B3 RNA with G55A
modifications: 2'-F pyrimidines
B5: SEQ 30 (ssRNA)
RNA: GGGACGGUAGGAAUUCGUCCCUCUUGUCUAUUUUGCAGAUAGACUUAAAGCAAACAUAGAAGAGCGGCCGC
modifications: 2'-F pyrimidines
B6: SEQ 17 (ssRNA)
RNA: GGGACGGUAGGAAUUCCGUUCGCAGAAACGAACUUUUAAAAAAUGUACGUGGGAGCACAUAGAAGAGCGGCCGC
modifications: 2'-F pyrimidines
B7: SEQ 23 (ssRNA)
RNA: GGGACGGUAGGAAUUCAUAUGUACUCCGUCCUGACAAAAUGUCAAUGACAAACGUUCAUAGAAGAGCGGCCGC
modifications: 2'-F pyrimidines
B8: SEQ 9 (ssRNA)
RNA: GGGACGGUAGGAAUUCCCGAAAAGCAACAAGCUUGCUAAAAUGAUUCCGAAAAAACACAUAGAAGAGCGGCCGC
modifications: 2'-F pyrimidines
B9: SEQ 12 (ssRNA)
RNA: GGGACGGUAGGAAUUCGCCGUCAACGUUACAUAAUGUAUAUACCAGGGUAACUAAACAUAGAAGAGCGGCCGC
modifications: 2'-F pyrimidines
B10: SEQ 19 (ssRNA)
RNA: GGGACGGUAGGAAUUCCCACUGCAAUUCAGCAGAAAAAAUUCCGAAAAACACACACCAUAGAAGAGCGGCCGC
modifications: 2'-F pyrimidines
B11: SEQ 11 (ssRNA)
RNA: GGGACGGUAGGAAUUCCCGACACGAAAUGUGUGAUUAAUUCCGAACAACAAAGUAACAUAGAAGAGCGGCCGC
modifications: 2'-F pyrimidines
B12: SEQ 26 (ssRNA)
RNA: GGGACGGUAGGAAUUCGUCGAUUCUACAGAUAGAGAUAAAGUAGAAUUUAACAAAACAUAGAAGAGCGGCCGC
modifications: 2'-F pyrimidines
B13: SEQ 15 (ssRNA)
RNA: GGGACGGUAGGAAUUCCCAGAAAAUAAAUUCCGAAGAAAACAACAAUUUUUGCAAACAUAGAAGAGCGGCCGC
modifications: 2'-F pyrimidines
B14: SEQ 24 (ssRNA)
RNA: GGGACGGUAGGAAUUCCCUUCAUAGUAGAAUGUUGGUUUCUACAAAAGCGACAAGCAUAGAAGAGCGGCCGC
modifications: 2'-F pyrimidines
B15: SEQ 25 (ssRNA)
RNA: GGGACGGUAGGAAUUCAGCUGACUCCAAUGCACACGUAGAUAGAGUUAAAACGUUGCAUAGAAGAGCGGCCGC
modifications: 2'-F pyrimidines
B16: SEQ 5 (ssRNA)
RNA: GGGACGGUAGGAAUUCCCACUUGUCUUUGAGGCAAGAAAUUGUAUUCCGAAGAAGCAUAGAAGAGCGGCCGC
modifications: 2'-F pyrimidines

Assays:
[1] = target: T1, chymase (recombinant, manufactured by SIGMA); assay: Surface plasmon resonance (Biacore T100), chymase immobilized on CM5 chip, nucleic acid injected as analyte; format: binding; set-up: key to Binding activity as determined using Biacore: ++: a sequence that binds to chymase significantly more strongly than the negative control 40N; +: a sequence that binds to chymase equivalently compared with the negative control 40N; key to binding activity using Biacore: ++: significant binding to chymase than SEQ ID NO: 58 which is a negative control; +: similar binding level as SEQ ID NO: 58 which is a negative control; settings: for binding activity using Biacore: Table 5, same manner as Example 4, compared with SEQ ID NO: 58
Description: In another method, chymase is first immobilized onto a sensor chip, the amount immobilized being about 4000 RU. 20 μL of an aptamer solution for analyte, prepared at 0.01 μg/μL, is injected, and the binding of the aptamer to chymase is detected. An RNA containing a random nucleotide sequence of 30 or 40 nucleotides is used as a negative control.
Whether these nucleic acids bind to chymase was determined by the surface plasmon resonance method. Measurements were taken using Biacore T100 (manufactured by GE Healthcare) as described below. About 4000 RU of chymase (recombinant, manufactured by SIGMA) was immobilized on the sensor chip surface of a CM5 chip, using an amine coupling kit. 20 μL of each nucleic acid, prepared at 0.3 μM, as an analyte was injected at a flow rate of 20 μL/min. Solution C was used as a running buffer. The method of evaluation used was the same as Example 1.
All nucleic acids of SEQ ID NO: 58-68 were prepared by chemical synthesis. Whether these nucleic acids are bound to chymase was assessed by surface plasmon resonance method in the same manner as in Example 4. The inhibitory activity on chymase was measured in the same manner as in Example 3.
All nucleic acids of SEQ ID NOs: 73-79, 56(8), 80, 56(10), 81, 56(13)-56(14), 83-87 were prepared by chemical synthesis. Whether these nucleic acids are bound to chymase was assessed by surface plasmon resonance method in the same manner as in Example 4.
All nucleic acids of SEQ ID NO: 88-120, 121, 69, 122, 123, 70-72, 124-131 were prepared by chemical synthesis. Whether these nucleic acids are bound to chymase was assessed by surface plasmon resonance method in the same manner as in Example 4.

[2] = target: T1, chymase (recombinant, manufactured by SIGMA); assay: Chymase inhibitory activity using synthetic substrate Suc-Ala-Ala-Pro-Phe-MCA; format: biochemical; settings: same manner as Example 3
Summary of the method: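 Human recombinant chymase (16.7 nM or 1.67 nM final) preincubated 5 min at 37° C., then added to nucleic acid (0.0027–2 μM serial dilutions) and 100 μM substrate in solution C. AMC fluorescence (ex 380/em 460 nm) followed 5 or 30 min at 37° C.; slope gives initial velocity, inhibition versus no-inhibitor control yields IC50.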

chymase (recombinant) [3] = target: T2, chymase (recombinant); assay: inhibition; SPR ++; settings: tags: SIGMA, expressed in yeast
Description: (§1) Here, Suc is a protecting succinyl group, and MCA is a 4-methylcoumaryl-7-amide group; upon cleavage of the C-terminal side of phenylalanine, AMC (7-amino-4-methyl-coumarine) is released. By detecting the fluorescence of this AMC, the enzyme activity of chymase can be determined. The assay was performed using a 96-well plate (F16 Black Maxisorp Fluoronunc, manufactured by Nunc), with a reaction mixture volume of 100 μL, in solution C as a buffer solution. First, each nucleic acid was serially diluted to 0.0027-2 μM concentrations in solution C to obtain 50 μL solutions. After 10 μL of the 1 mM substrate prepared in solution C was added thereto, the plate was set to the microplate reader SpectraMax190 (manufactured by Molecular Devices Corporation), and incubated at 37° C. for 5 minutes. Separately, 0.05 μg (or 0.005 μg) of chymase (recombinant, manufactured by SIGMA) was diluted in solution C to obtain a 40 μL chymase solution, and incubated at 37° C. for 5 minutes. The chymase solution was added to the mixture of the nucleic acid and substrate to initiate an enzyme reaction. The final chymase concentration in the reaction mixture was 16.7 nM (or 1.67 nM), the final substrate concentration being 100 μM. The plate containing the reaction mixture was set to the microplate reader SpectraMax190 (manufactured by Molecular Devices Corporation), and examined for time-dependent changes in the fluorescence intensity at 37° C. for 5 minutes (or 30 minutes) (excitation wavelength 380 nm, detection wavelength 460 nm). A linear approximation of the increase in the fluorescence of the AMC released from the substrate by chymase activity was generated, and its slope was taken as the initial velocity […]. For control, samples were treated and analyzed in the same manner in two cases: use of a 30N or 40N (a nucleotide of 30 or 40 consecutive bases represented by N; N is A, G, C or T) nucleic acid pool (negative control), and use of chymostatin, a known chymotrypsin-like serine protease inhibitor (positive control). Taking the initial reaction velocity without the nucleic acid and inhibitor (V_0) as a 100% enzyme activity, the inhibitory rate of each test substance was calculated using the following equation: […]

chymase (recombinant) [4] = target: T2, chymase (recombinant); assay: inhibition; SPR ++; settings: tags: SIGMA, expressed in yeast; remark: listed apart in the source
Description: as §1
The inhibitory activity on chymase was measured in the same manner as in Example 3.

[5] = Table 5, mean value of two measurements

Row | Molecule | IC50 (chymase (recombinant) [3]) [nM] | IC50 (chymase (recombinant) [4]) [nM] | further results
1 | 52 (CCGUAUAUACCAGGGUAACUAAACGG; 2'-fluoro at CU, RNA at AG, backbone not given here) [compound 52] | – | – | Binding activity as determined using Biacore ([1]; Table 4, about 4000 RU chymase immobilized, nucleic acid 0.3 μM, solution C, compared with 40N): +; IC50 ([2]; Table 4, mean value for 2 to 3 measurements): > 1000 nM
2 | 59 (GGGUUAGAUAGAGAUAAAAACCC; 2'-fluoro at CU, RNA at AG, backbone not given here) [compound 59] | – | – | binding activity using Biacore [1]: ++; IC50 [2, 5]: 38 ± 9 nM
3 | 61 (GGGUUAGAUAGAUUUAAAAACCC; 2'-fluoro at CU, RNA at AG, backbone not given here) [compound 61] | – | – | binding activity using Biacore [1]: ++; IC50 [2, 5]: 23 ± 6 nM
4 | 67 (GGGUUAGAUACAGUUAAAAACCC; listed as RNA, chemistry not fully specified) [compound 67] | – | – | binding activity using Biacore [1]: +; IC50 [2, 5]: > 1000 nM
5 | B1 | 58 | – | –
6 | B2 | 61 | – | –
7 | B3 | 456 | – | –
8 | B4 | 453 | – | –
9 | B5 | 147 | – | –
10 | GGGUUAGAUAGAGUUAAAAACCC (ssRNA, 2'-F pyrimidines; 2'-OMe A19,A20) [56(3)] | – | 25 | –
11 | B6 | 92 | – | –
12 | GGGUUAGAUAGAGUUAAAAACCC (ssRNA, 2'-F pyrimidines; 2'-OMe G7) [56(6)] | – | 31 | –
13 | B7 | 238 | – | –
14 | B8 | 273 | – | –
15 | GGGUUAGAUAGAGUUAAAAACCC (ssRNA, 2'-F pyrimidines; 2'-OMe A10) [56(4)] | – | 27 | –
16 | GGGUUAGAUAGAGUUAAAAACCC (ssRNA, 2'-F pyrimidines; 5' and 3' idT) [56(1)] | – | 26 | –

Row | Molecule | IC50 (chymase (recombinant) [3]) [nM] | IC50 (chymase (recombinant) [4]) [nM] | further results
17 | B9 | 128 | – | –
18 | B10 | 163 | – | –
19 | GGGUUAGAUAGAGUUAAAAACCC (ssRNA, 2'-F pyrimidines; 2'-OMe A12) [56(9)] | – | 111 | –
20 | B11 | 145 | – | –
21 | GGGUUAGAUAGAGUUAAAAACCC (ssRNA, 2'-F pyrimidines; 2'-OMe G13) [56(12)] | – | 35 | –
22 | GGGUUAGAUAGAGUUAAAAACCC (ssRNA, 2'-F pyrimidines; 2'-OMe G1-G3) [56(2)] | – | 24 | –
23 | B12 | 106 | – | –
24 | GGGUUAGAUAGAGUUAAAAACCC (ssRNA, 2'-F pyrimidines; 2'-OMe A16,A17) [56(5)] | – | 29 | –
25 | GGGUUAGAUAGAGUUAAAAACCC (ssRNA, 2'-F pyrimidines; PS between U5 and A6) [56(18)] | – | 12 | –
26 | B13 | 285 | – | –
27 | B14 | 92 | – | –
28 | B15 | 79 | – | –
29 | GGGUUAGAUAGAGUUAAAAACCC (ssRNA, 2'-F pyrimidines; 2'-OMe A8) [56(7)] | – | 38 | –
30 | GGGUUAGAUAGAGUUAAAAACCC (ssRNA, 2'-F pyrimidines; PS between A6 and G7) [56(19)] | – | 8 | –
31 | GGGUUAGAUAGAGUUAAAAACCC (ssRNA, 2'-F pyrimidines; 2'-OMe A18) [56(11)] | – | 28 | –
32 | B16 | 80 | – | –
